Molecular target: T1, SARS-CoV-2 full-length spike, WT D614G, expressed on the cell surface (SARS-CoV-2, wild type with D614G, UniProt A0A6H1PJZ3, D614G)
T1 construct: also called wild-type spike
Assay: flow cytometry on cells
Conditions: one partner purified

B1: REGN10987 (class III) (antibody, V domains shown)
VH: QVQLVESGGGVVQPGRSLRLSCAASGFTFSNYAMYWVRQAPGKGLEWVAVISYDGSNKYYADSVKGRFTISRDNSKNTLYLQMNSLRTEDTAVYYCASGSDYGDYLLVYWGQGTLVTVSS
VL: QSALTQPASVSGSPGQSITISCTGTSSDVGGYNYVSWYQQHPGKAPKLMIYDVSKRPSGVSNRFSGSKSGNTASLTISGLQSEDEADYYCNSLTSISTWVFGGGTKLTVL
Q: Does B1 bind?
A: binds
